Reference: US8563520B2, “Treatment of ocular disease with inhibitors of alpha2 macroglobulin protein” (McGill University, priority 2005, dated 2013)

Tested on: retinal ganglion cells (RGCs)
Experiment: RGC loss after intraocular injection of α2 macroglobulin protein in normal eyes
Format: in vivo, rat
Experimental: RGCs were labeled with 3% DII (1,1-dioctadecyl-3,3,3,3-tetramethylindocarbocyanine perchlorate) or with 3% fluorogold. Briefly, Wistar rats were anesthetized and their heads were mounted in a stereotactic apparatus.
7 days after dye injection, the vasculature of the rats were perfused-fixed (transcardiac perfusion in phosphate-buffer (PB), followed by 4% PFA in PB) and the eyes were enucleated. After post-fixing for 1 hour cuts were made through the sclera to form a Maltese cross pattern and retinas detached from the eyecup at the optic nerve head. The retinas were flat-mounted on glass slides (vitreous side up) air-dried and cover-slipped with mounting medium (Molecular Probes). The retinas were observed under fluorescence microscopy (Zeiss). […] RGCs were recognized in flat mounted retinas by the presence of retrogradely transported dye and by morphology. RGCs in all 4 quadrants (16 images per retina) were averaged and presented as […] of area counted.
To evaluate the potential role of α2 macroglobulin in the death of RGCs, α2 macrobglobulin protein was microinjected in normal eyes to determine whether glaucoma-like RGC death ensued. In this paradigm, a total of 1-2 μg of α2 macroglobulin were delivered by a single intraocular injection in normal eyes, and surviving RGCs were counted at days 14 or 28 post-injection, by retrograde labeling. […]

B1: α2m: α2 macroglobulin protein injected intraocularly into normal rat eyes (protein, UniProt P06238 28-1472, looked up)
Alpha-2-macroglobulin: SAPQKPIYMVMVPSLLHAGTPEKACFLFSHLNETVAVRVSLESVRGNQSLFTDLVVDKDLFHCTSFTVPQSSSDEVMFFTVQVKGATHEFRRRSTVLVKKKESLVFAQTDKPIYKPGQTVRFRVVSLDESFHPLNELIPLLYIQDPKNNRIAQWQNFNLEGGLKQLSFPLSSEPTQGSYKVVIRTESGRTVEHPFSVEEFVLPKFEVRVTVPETITILEEEMNVSVCGIYTYGKPVPGRVTVNICRKYSNPSNCFGEESVAFCEKLSQQLDGRGCFSQLVKTKSFQLKRQEYEMQLDVHAKIQEEGTGVEETGKGLTKITRTITKLSFVNVDSHFRQGIPFVGQVLLVDGRGTPIPYETIFIGADEANLYINTTTDKHGLARFSINTDDIMGTSLTVRAKYKDSNACYGFRWLTEENVEAWHTAYAVFSPSRSFLHLESLPDKLRCDQTLEVQAHYILNGEAMQELKELVFYYLMMAKGGIVRAGTHVLPLKQGQMRGHFSILISMETDLAPVARLVLYAILPNGEVVGDTAKYEIENCLANKVDLVFRPNSGLPATRALLSVMASPQSLCGLRAVDQSVLLMKPETELSASLIYDLLPVKDLTGFPQGADQREEDTNGCVKQNDTYINGILYSPVQNTNEEDMYGFLKDMGLKVFTNSNIRKPKVCERLRDNKGIPAAYHLVSQSHMDAFLESSESPTETRRSYFPETWIWDLVVVDSAGVAEVEVTVPDTITEWKAGAFCLSNDTGLGLSPVVQFQAFQPFFVELTMPYSVIRGEAFTLKATVLNYLPTCIRVAVQLEASPDFLAAPEEKEQRSHCICMNQRHTASWAVIPKSLGNVNFTVSAEALNSKELCGNEVPVVPEQGKKDTIIKSLLVEPEGLENEVTFNSLLCPMGAEVSELIALKLPSDVVEESARASVTVLGDILGSAMQNTQDLLKMPYGCGEQNMVLFAPNIYVLDYLNETQQLTQEIKTKAIAYLNTGYQRQLNYKHRDGSYSTFGDKPGRNHANTWLTAFVLKSFAQARKYIFIDEVHITQALLWLSQQQKDNGCFRSSGSLLNNAMKGGVEDEVTLSAYITIALLEMSLPVTHPVVRNALFCLDTAWKSARGGAGGSHVYTKALLAYAFALAGNQDTKKEILKSLDEEAVKEEDSVHWTRPQKPSVSVALWYQPQAPSAEVEMTAYVLLAYLTTEPAPTQEDLTAAMLIVKWLTKQQNSHGGFSSTQDTVVALHALSKYGSATFTRAKKAAQVTIHSSGTFSTKFQVNNNNQLLLQRVTLPTVPGDYTVKVTGEGCVYLQTSLKYSVLPREEEFPFTVVVQTLPGTCEDPKAHTSFQISLNISYTGSRSESNMAIADVKMVSGFIPLKPTVKMLERSVHVSRTEVSNNHVLIYLDKVSNQTVNLSFTVQQDIPIRDLKPAVVKVYDYYEKDEFAVAKYSAPCSTDYGNA
- RGC losses compared to vehicle PBS (2 weeks after single intraocular injection of 1-2 μg in normal eyes): 11±3%
- RGC losses compared to vehicle PBS (4 weeks after single intraocular injection of 1-2 μg in normal eyes): 28±11%
